Results from FireProtDB (doi:10.1021/bi9928694).

Conditions: Homo sapiens, reversible: yes, whole UniProt chain shown
[1] = pH 2.7, Thermal, DSC, glycine-HCl 0.05 M
[2] = pH 4, 10 °C, GdnHCl, CD, glycine-HCl 40 mM

B1: Lysozyme C wild type, P61626 (protein)
chain: MKALIVLGLVLLSVTVQGKVFERCELARTLKRLGMDGYRGISLANWMCLAKWESGYNTRATNYNAGDRSTDYGIFQINSRYWCNDGKTPGAVNACHLSCSALLQDNIADAVACAKRVVRDPQGIRAWVAWRNRCQNRDVRQYVQGCGV
[1]
  Tm: 64.9 °C
  heat capacity change of unfolding: 1.58 kcal/mol/K
  unfolding enthalpy (calorimetric): 114 kcal/mol
[2]
  denaturant midpoint (higher = more stable): 3.96 M
  unfolding free energy: 14.3 kcal/mol
